This note sets out measurements from article PMC6168507 (2018).

For the experiment, the target named is LRP-1 (Homo sapiens, UniProt Q07954). In words: ELISA.
Chain of LRP-1 (Q07954 20-4544): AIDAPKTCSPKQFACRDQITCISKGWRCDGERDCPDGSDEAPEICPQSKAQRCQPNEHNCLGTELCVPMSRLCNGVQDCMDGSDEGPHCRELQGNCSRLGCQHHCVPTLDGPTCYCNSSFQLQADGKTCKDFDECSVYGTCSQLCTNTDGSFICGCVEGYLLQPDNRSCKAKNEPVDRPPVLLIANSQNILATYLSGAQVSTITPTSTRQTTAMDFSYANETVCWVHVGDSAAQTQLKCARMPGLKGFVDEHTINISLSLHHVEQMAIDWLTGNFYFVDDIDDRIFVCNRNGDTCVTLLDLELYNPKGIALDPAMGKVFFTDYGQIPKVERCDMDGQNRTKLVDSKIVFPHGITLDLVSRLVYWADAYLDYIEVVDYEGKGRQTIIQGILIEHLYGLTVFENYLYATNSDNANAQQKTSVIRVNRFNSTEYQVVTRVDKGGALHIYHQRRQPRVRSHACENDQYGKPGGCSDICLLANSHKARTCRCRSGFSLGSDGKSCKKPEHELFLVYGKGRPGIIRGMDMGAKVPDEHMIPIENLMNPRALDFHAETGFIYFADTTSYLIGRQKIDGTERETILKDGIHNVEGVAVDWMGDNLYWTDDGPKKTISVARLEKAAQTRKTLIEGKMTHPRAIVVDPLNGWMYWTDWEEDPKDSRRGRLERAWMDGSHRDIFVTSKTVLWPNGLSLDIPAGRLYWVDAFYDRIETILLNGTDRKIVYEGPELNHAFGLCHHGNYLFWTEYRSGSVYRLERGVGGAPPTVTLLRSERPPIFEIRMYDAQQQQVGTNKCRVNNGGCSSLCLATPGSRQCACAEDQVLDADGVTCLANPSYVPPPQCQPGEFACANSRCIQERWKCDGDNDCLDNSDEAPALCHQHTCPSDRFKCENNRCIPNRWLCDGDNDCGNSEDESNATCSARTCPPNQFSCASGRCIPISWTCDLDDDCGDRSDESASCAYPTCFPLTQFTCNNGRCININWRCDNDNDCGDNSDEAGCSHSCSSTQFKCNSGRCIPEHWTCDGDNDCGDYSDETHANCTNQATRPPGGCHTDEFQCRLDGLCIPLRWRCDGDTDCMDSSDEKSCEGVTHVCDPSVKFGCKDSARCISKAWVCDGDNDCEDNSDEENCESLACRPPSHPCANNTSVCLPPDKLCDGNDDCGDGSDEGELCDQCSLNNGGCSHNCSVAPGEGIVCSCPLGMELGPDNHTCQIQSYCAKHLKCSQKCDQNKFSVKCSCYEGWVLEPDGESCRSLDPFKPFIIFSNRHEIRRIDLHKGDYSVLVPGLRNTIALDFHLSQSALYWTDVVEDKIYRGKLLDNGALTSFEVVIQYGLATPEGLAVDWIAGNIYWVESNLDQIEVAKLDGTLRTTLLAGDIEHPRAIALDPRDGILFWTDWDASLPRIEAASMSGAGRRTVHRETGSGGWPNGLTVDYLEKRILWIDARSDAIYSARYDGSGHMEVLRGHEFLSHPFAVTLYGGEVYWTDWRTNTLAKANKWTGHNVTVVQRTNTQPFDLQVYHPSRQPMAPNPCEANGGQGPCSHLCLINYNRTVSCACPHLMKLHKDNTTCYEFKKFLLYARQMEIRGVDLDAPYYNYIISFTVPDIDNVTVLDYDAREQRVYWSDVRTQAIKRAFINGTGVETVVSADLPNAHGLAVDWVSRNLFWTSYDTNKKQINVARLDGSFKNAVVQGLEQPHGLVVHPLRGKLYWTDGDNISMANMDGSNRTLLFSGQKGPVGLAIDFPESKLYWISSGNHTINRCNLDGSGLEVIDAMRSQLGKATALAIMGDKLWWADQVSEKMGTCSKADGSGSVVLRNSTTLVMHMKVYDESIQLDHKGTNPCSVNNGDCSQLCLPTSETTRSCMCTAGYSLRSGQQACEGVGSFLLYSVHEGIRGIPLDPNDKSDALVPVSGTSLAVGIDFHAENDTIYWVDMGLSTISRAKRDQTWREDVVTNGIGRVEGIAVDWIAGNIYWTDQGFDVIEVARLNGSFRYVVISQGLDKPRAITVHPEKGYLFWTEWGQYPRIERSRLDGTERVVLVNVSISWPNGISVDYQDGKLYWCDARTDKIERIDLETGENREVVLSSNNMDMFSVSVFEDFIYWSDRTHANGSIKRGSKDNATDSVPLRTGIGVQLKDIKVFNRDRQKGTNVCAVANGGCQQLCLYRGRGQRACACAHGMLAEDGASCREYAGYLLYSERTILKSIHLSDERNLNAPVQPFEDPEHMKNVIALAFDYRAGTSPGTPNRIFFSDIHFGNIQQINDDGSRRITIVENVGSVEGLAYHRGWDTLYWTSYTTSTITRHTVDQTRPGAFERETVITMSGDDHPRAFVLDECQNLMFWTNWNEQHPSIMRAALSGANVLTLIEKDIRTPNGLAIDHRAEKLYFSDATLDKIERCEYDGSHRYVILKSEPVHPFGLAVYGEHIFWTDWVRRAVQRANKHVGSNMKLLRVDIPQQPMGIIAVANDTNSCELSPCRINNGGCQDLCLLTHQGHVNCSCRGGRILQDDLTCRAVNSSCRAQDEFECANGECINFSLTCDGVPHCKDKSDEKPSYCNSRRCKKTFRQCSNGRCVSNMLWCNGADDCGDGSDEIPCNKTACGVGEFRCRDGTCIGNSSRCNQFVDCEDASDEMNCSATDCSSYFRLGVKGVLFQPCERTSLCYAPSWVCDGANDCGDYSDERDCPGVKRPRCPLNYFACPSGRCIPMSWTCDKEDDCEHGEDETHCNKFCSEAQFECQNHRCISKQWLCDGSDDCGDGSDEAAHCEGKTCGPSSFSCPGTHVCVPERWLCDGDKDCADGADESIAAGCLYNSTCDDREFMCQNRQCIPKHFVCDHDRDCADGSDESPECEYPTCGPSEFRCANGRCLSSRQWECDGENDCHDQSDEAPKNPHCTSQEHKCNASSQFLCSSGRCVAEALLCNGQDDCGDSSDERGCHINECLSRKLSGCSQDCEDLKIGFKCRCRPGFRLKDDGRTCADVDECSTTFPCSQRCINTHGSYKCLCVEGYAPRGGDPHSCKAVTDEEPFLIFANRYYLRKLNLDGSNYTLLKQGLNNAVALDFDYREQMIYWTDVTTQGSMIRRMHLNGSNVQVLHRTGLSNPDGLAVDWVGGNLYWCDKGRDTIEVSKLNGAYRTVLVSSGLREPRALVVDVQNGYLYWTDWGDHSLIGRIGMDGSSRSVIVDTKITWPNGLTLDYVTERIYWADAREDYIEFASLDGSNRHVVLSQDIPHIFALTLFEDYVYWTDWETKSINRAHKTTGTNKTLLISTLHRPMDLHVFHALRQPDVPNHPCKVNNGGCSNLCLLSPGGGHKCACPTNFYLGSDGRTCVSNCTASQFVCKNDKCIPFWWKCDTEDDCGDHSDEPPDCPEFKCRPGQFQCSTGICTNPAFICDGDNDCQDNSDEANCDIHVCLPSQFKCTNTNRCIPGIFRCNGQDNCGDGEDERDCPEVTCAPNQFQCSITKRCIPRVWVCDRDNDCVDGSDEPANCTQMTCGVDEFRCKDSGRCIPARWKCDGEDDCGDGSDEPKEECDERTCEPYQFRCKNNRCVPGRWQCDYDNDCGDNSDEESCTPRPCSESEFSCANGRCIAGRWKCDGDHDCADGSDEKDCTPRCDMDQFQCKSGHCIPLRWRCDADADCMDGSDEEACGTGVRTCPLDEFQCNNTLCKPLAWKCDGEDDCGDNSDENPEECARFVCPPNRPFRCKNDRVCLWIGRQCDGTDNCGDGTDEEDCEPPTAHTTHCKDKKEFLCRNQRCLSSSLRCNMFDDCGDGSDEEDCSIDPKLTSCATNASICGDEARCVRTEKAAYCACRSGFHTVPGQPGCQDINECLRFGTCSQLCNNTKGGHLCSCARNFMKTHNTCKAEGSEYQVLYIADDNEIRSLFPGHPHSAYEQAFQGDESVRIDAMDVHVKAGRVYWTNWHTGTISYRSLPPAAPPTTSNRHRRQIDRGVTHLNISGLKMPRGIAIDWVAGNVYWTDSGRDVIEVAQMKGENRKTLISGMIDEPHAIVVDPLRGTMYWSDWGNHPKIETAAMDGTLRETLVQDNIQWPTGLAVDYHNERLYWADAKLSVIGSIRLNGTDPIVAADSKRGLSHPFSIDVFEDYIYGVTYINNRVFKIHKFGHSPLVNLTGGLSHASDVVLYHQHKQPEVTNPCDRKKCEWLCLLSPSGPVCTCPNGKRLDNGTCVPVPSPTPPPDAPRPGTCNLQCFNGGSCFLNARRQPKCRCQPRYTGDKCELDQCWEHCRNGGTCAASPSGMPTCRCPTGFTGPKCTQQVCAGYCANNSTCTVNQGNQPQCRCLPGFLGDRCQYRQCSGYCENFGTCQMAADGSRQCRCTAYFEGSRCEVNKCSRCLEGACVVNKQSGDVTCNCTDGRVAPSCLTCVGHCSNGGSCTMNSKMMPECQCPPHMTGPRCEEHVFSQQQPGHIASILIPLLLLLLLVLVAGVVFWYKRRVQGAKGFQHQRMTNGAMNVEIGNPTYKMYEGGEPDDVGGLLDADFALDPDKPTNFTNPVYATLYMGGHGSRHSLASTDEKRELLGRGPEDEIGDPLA

B1: TIMP-1 (protein)
chain: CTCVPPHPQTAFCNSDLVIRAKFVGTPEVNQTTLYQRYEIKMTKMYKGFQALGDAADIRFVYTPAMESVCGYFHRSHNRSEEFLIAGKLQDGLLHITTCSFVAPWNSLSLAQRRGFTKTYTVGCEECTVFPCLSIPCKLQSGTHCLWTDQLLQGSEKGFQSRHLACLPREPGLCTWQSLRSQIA
The molecule B1 returned a dissociation constant (Kd) of 16 nM.

The term Kd denotes the concentration at which binding is half-saturated.
